Drawing on paper PMC4844702, “Selective inhibition of the kinase DYRK1A by targeting its folding process” (Nature Communications, 2016), this text covers fold change for four substances.

The test has as its target CDC37 (UniProt Q16543). Briefly: anti-FLAG plate capture, CDC37-nanoKAZ luminescence. As to conditions: reference: wild type.

As for “DYRK1A (from UniProt Q13627) Y319F/Y321F”, under “sites Y319,Y321”, the fold change came out at 6.2.

On to DYRK1A (from UniProt Q13627) Y321F, for which the fold change (sites Y321) was found to be 5.2.

For the setting “sites S97”, “DYRK1A (from UniProt Q13627) K188R kinase-dead” gave a fold change of 54.

DYRK1A (from UniProt Q13627) S97A: the fold change (sites S97) came out at 2.2.
